The source of these data is PMC5750218, “Protein-inspired antibiotics active against vancomycin- and daptomycin-resistant bacteria” (Nature Communications, 2018).

The nature of series [1]: Cytotoxicity MTT assay. Format: cell-based, human. Conditions: human. On the procedure:
(§1) Compound cytotoxicity was evaluated against HepG2 (ATCC-®HB-8065 liver hepatoceullular carcinoma) and HEK293 (ATCC®CRL-1573, embryonic kidney) human cell lines using standard (3-(4,5-dimethylthiazol-2-yl)−2,5-diphenyltetrazolium bromide (MTT) assay protocol with slight changes. In brief, HepG2 and HEK293 cells (assessed annually for mycoplasma contamination) were seeded as 1.5 × 10^4 cells per well in a clear 96-well tissue culture treated plate in a final volume of 100 μL in Dulbecco’s Modified Eagle Medium (DMEM)(GIBCO-Invitrogen #11995-073), in which 1% of FBS was added. Cells were incubated for 24 h at 37 °C, 5% CO2 to allow cells to attach to the plates. Compounds prepared at 100 µM to 0.046 µM in threefold dilutions were added into each well and incubated for 24 h at 37 °C, 5% CO2. After the incubation, 0.4 mg mL^−1 MTT (3-(4,5-dimethylthiazol-2-yl)−2,5-diphenyltetrazolium bromide) (Invitrogen) was added to each well. The plates were then incubated for 2 h at 37 °C, 5% CO2. The media was removed, and purple formazan crystals were resuspended in 60 μL of DMSO. The absorbance was read at 570 nm using a Polarstar Omega plate reader. The data was then analysed by Prism software. Results are presented as the average percentage of control ± S.D. for each set of duplicate wells using the following equation: percent viability = (ABSTEST – ABSPOSITIVE CTRL / ABSUNTREATED –ABS POSITIVE CTRL)×100.
A general note: Tetrazolium assays rely on reduction of a dye to a coloured formazan, in cell work by metabolically active cells.

Series [2] can be described thus: Cytotoxicity MTT assay. It counts as cell-based, human. Conditions: human. On the procedure:
as §1, with “Compounds prepared at 100 µM to 0.046 µM in threefold dilutions were added into each well and incubated for 24 h at 37 °C, 5% CO2.” left out
This is another data set of the same source.

Series [3] has as its system Methicillin-resistant S. aureus ATCC 43300. Put plainly: microbe, parasite or virus in culture. In a few lines:
(§2)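 Reported values are MICs read as the lowest concentration showing no visible growth after 24 h at 37 °C. Compounds were tested by twofold broth microdilution in Mueller Hinton broth over 8 to 0.003 µg mL^−1.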

Series [4] concerns Vancomycin-resistant (VanA) Enterococcus faecium ATCC 51559. Put plainly: microbe, parasite or virus in culture. An outline of the steps:
as §2

The subject of series [5] is Multi-drug-resistant S. pneumoniae ATCC 700677. Put plainly: microbe, parasite or virus in culture. An outline of the steps:
as §2

The test system of series [6] is Vancomycin-intermediate S. aureus NRS1. As to the kind of experiment: microbe, parasite or virus in culture. An outline of the steps:
as §2

In series [7] the test system is MRSA. Conditions: MRSA in 50% human serum / 50% MHB. The procedure:
The compounds, along with standard antibiotics were serially diluted twofold across the wells of 96-well non-binding surface (NBS) polystyrene plates (Corning 3641). […] Standards ranged from 64 to 0.03 µg mL^−1 and compounds from 8 to 0.003 µg mL^−1 with final assay volumes of 100 µL per well. Gram-positive bacteria were cultured in Mueller Hinton broth (MHB) (Bactolaboratories, Cat. no. 211443) at 37 °C overnight. A sample of each culture was then diluted 40-fold in fresh MHB and incubated at 37 °C for 2–3 h. […] All the plates were covered and incubated at 37 °C for 24 h. MICs were the lowest concentration showing no visible growth.
The compounds, along with standard antibiotics, tested in BMD-MIC assay as above, in the presence of a mixture of 50% human serum (Sigma-Aldrich) and 50% MHB.

Series [8] in a line: in vitro. The conditions noted are these: human, 50% human plasma (pooled, sodium heparin) in PBS, pH 7.4.
Series [9] is described as follows: Haemolysis assay. It counts as cell-based. The conditions noted are these: human, whole blood. The procedure: Haemolytic activity was measured as previously described with slight modifications, [45]. Fresh human venal blood was collected from healthy volunteers and pretreated with the anticoagulant sodium citrate. Serial twofold dilutions of each antibiotic, dissolved in 0.9% NaCl solution, were added to fresh human whole blood (50% final, vol:vol) to the final volume of 80 μL and incubated at 37 °C for 3 h on a horizontal shaker at 200 rpm. For negative and positive controls, human whole blood in 0.9% NaCl solution (A blank) and in sdH2O (A water) were used, respectively. After incubation, both test and A blank were mixed with 1 mL 0.9% NaCl solution, or sdH2O for the complete […] A water. After centrifugation of samples at 2500 rpm (700 × g) for 5 min, the release of haemoglobin was monitored by measuring the absorbance (A sample) of the supernatant at 540 nm using BMG Labtech PolarStar Omega multimode reader. The percentage of haemolysis was calculated according to the equation: %haemolysis=Asample-Ablank∕Awater-Ablank×100

For series [10] the following is noted: 37 °C, 20 µM.
In series [11] the test system is Bacillus subtilis ATCC 6633. Put plainly: microbe, parasite or virus in culture. It counts as cell-based. Conditions: for Ac2Kaa concentration required to neutralise MIC activity / MIC: ATCC 6633, 48 h. On the procedure: All compounds were dissolved in H2O. Bacillus subtilis ATCC® 6633™ NRS-231 was cultured in MHB at 37 °C for 48 h. A sample of each culture was then diluted 40-fold in fresh MHB and incubated at 37 °C for 18 h. Compounds were added to each row of 96-well NBS plates (NBS, Corning 3641), in duplicate. The tripeptide N,N΄-diacetyl-L-Lys-D-Ala-D-Ala was serially diluted twofold across the compound-containing wells from 6400 to 3 µg mL^−1. To this the resultant mid-log phase cultures were diluted to the final concentration of 5 × 10^5 CFU mL^−1, then added to wells of the compound-containing plates. All the plates were covered and incubated at 37 °C for 24 h.

In brackets after ≈: the same amount, converted by molar mass. Several values for one entry are separate records, joined by “and”; a condition that tells them apart may be missing. Identical values can stand only once. Like-named read-outs stand apart in the source and are kept apart here.

Take `CCCCCCCCCCCCCC(=O)NCC(=O)N[C@@H](CO)C(=O)N[C@@H](CO)C(=O)N[C@@H](CCCCN)C(=O)N[C@@H](CO)C(=O)N1CCC[C@H]1C(=O)N[C@@H](CO)C(=O)N[C@@H](CCCCN)C(=O)N[C@@H](CCCCN)C(=O)N[C@@H](CCCCN)C(=O)N[C@@H](CCCCN)C(=O)N[C@@H](CCCCN)C(=O)N[C@@H](CCCCN)C(=O)N1CCC[C@H]1C(=O)NCC(=O)N[C@@H](CC(=O)O)C(=O)N[C@@H](CSSCCNC(=O)[C@H]1NC(=O)[C@H]2NC(=O)[C@H](NC(=O)[C@@H]3NC(=O)[C@H](CC(N)=O)NC(=O)[C@H](NC(=O)[C@@H](CC(C)C)NC)[C@H](O)c4ccc(c(Cl)c4)Oc4cc3cc(c4O[C@@H]3O[C@H](CO)[C@@H](O)[C@H](O)[C@H]3O[C@H]3C[C@](C)(N)[C@H](O)[C@H](C)O3)Oc3ccc(cc3Cl)[C@H]2O)c2ccc(O)c(c2)-c2c(O)cc(O)cc21)C(N)=O` [Compound 8]: the CC50 at 24 h was 22 µM in series [1] (24 h, MTT, 1% FBS, read-out: Cytotoxicity CC50 HEK293) and 10 µM in series [2] (24 h, MTT, 1% FBS, read-out: Cytotoxicity CC50 HepG2). Besides, the “MIC MRSA” value in series [3] (S. aureus ATCC 43300, NBS plates, MHB, 24 h, substance alone) came out at 0.5 µg/mL (≈ 0.143 µM). The “MIC VRE” value in [4] (E. faecium MDR VanA ATCC 51559, substance alone) was found to be 0.125 µg/mL (≈ 0.0357 µM). For the same compound, in [5] (S. pneumoniae ATCC 700677), the “MIC MDR S.P.” value amounted to 0.5 µg/mL (≈ 0.143 µM). Moreover, the “MIC VISA” value in [6] (S. aureus NRS1) came to 4 µg/mL (≈ 1.14 µM). In addition, in series [7], the “MIC +50% HS” value is more than 8 µg/mL.
On to `CCCCCCCCCCCCCC(=O)NCC(=O)N[C@@H](CO)C(=O)N[C@@H](CCCCN)C(=O)N[C@@H](CCCCN)C(=O)N[C@@H](CCCCN)C(=O)N[C@@H](CSSCCNC(=O)[C@H]1NC(=O)[C@H]2NC(=O)[C@H](NC(=O)[C@@H]3NC(=O)[C@H](CC(N)=O)NC(=O)[C@H](NC(=O)[C@@H](CC(C)C)NC)[C@H](O)c4ccc(c(Cl)c4)Oc4cc3cc(c4O[C@@H]3O[C@H](CO)[C@@H](O)[C@H](O)[C@H]3O[C@H]3C[C@](C)(N)[C@H](O)[C@H](C)O3)Oc3ccc(cc3Cl)[C@H]2O)c2ccc(O)c(c2)-c2c(O)cc(O)cc21)C(=O)O` [Compound 14], for which, in series [8], the share remaining at 1 h, 20 µM was 119%; the share remaining at 6 h, 20 µM is 82%; the fraction remaining at 24 h, 20 µM is 18%. In series [1], this compound returned a CC50 at 24 h of 11 µM. In [2], this compound yielded a CC50 at 24 h of 4 µM. Further, the “MIC MRSA” value in series [3] (ATCC 43300, 24 h) is less than 0.003 µg/mL. Further, in series [4] (ATCC 51559), the “MIC VRE” value stood at 0.09 µg/mL (≈ 0.038 µM). Also, in series [5] (ATCC 700677), the “MIC MDR S.P.” value was less than 0.003 µg/mL. In addition, the “MIC VISA” value in series [6] (Vancomycin-intermediate NRS1) is less than 0.003 µg/mL. For the same compound, the hemolysis at 3 h in series [9] (100 µg mL-1) turned out to be 0.4%. Besides, the hemolysis at 3 h in [9] (1600 µg mL-1) came out at 6.4%. In series [10], the “% compound remaining after incubation in 50% human plasma, 0h” value (from here on “% compound remaining after incubation”) amounted to 100%. Further, in series [11], the “Ac2Kaa concentration required to neutralise MIC activity” value was more than 3200 µg/mL and the MIC is not above 0.004 µg/mL.
As to `CCCCCCCCCCCCCC(=O)N[C@@H](CCCCN)C(=O)N[C@@H](CCCCN)C(=O)N[C@@H](CCCCN)C(=O)N[C@@H](CSSCCNC(=O)[C@H]1NC(=O)[C@H]2NC(=O)[C@H](NC(=O)[C@@H]3NC(=O)[C@H](CC(N)=O)NC(=O)[C@H](NC(=O)[C@@H](CC(C)C)NC)[C@H](O)c4ccc(c(Cl)c4)Oc4cc3cc(c4O[C@@H]3O[C@H](CO)[C@@H](O)[C@H](O)[C@H]3O[C@H]3C[C@](C)(N)[C@H](O)[C@H](C)O3)Oc3ccc(cc3Cl)[C@H]2O)c2ccc(O)c(c2)-c2c(O)cc(O)cc21)C(=O)O` [Compound 15, nC13CO-KKKC(SCH 2 CH 2 NH-Vancomycin)-OH], in series [8], the share remaining at 1 h, 20 µM is 77%; the share remaining at 3 h, 20 µM was found to be 64%; the share remaining at 6 h, 20 µM was found to be 51%; the share remaining at 24 h, 20 µM turned out to be 3%. In series [1], the CC50 at 24 h worked out at 18 µM. The compound also yielded a CC50 at 24 h in series [2] of 11 µM. For the same compound, the “MIC MRSA” value in [3] (ATCC 43300, 24 h) was less than 0.003 µg/mL. Also, in [4] (ATCC 51559), the “MIC VRE” value came to 0.02 µg/mL (≈ 0.009 µM). Moreover, in [5] (ATCC 700677), the “MIC MDR S.P.” value is less than 0.003 µg/mL. Further, the “MIC VISA” value in series [6] (Vancomycin-intermediate NRS1) came out at 0.02 µg/mL (≈ 0.009 µM). Moreover, the “% compound remaining after incubation” value in series [10] was found to be 100%.
`CCCCCCCCCCC(=O)N[C@@H](CCCCNC(=O)[C@H]1NC(=O)[C@H]2NC(=O)[C@H](NC(=O)[C@@H]3NC(=O)[C@H](CC(N)=O)NC(=O)[C@H](NC(=O)[C@@H](CC(C)C)NC)[C@H](O)c4ccc(c(Cl)c4)Oc4cc3cc(c4O[C@@H]3O[C@H](CO)[C@@H](O)[C@H](O)[C@H]3O[C@H]3C[C@](C)(N)[C@H](O)[C@H](C)O3)Oc3ccc(cc3Cl)[C@H]2O)c2ccc(O)c(c2)-c2c(O)cc(O)cc21)C(=O)O` [Compound 20, nC10CO-K(Vancomycin)-OH]: in series [8], the share remaining at 1 h, 20 µM is 101%; the fraction remaining at 3 h, 20 µM stood at 101%; the fraction remaining at 6 h, 20 µM was 100%; the share remaining at 24 h, 20 µM came out at 89%. This compound also showed a CC50 at 24 h in [1] of more than 500 µM. In series [2], the CC50 at 24 h is more than 500 µM. For the same compound, in [3] (ATCC 43300, 24 h), the “MIC MRSA” value is 0.125 µg/mL (≈ 0.0716 µM). For the same compound, in [4] (ATCC 51559), the “MIC VRE” value was more than 8 µg/mL. For the same compound, in series [5] (ATCC 700677), the “MIC MDR S.P.” value turned out to be 0.19 µg/mL (≈ 0.109 µM). For the same compound, in series [6] (Vancomycin-intermediate NRS1), the “MIC VISA” value was found to be 1.5 µg/mL (≈ 0.859 µM). Also, the “% compound remaining after incubation” value in series [10] was 100%. Also, in [11], the “Ac2Kaa concentration required to neutralise MIC activity” value was found to be 12.5 µg/mL and the MIC worked out at 0.03 µg/mL (≈ 0.0172 µM). Further, the “Molar excess of Ac2Kaa ligand required to antagonise antibacterial activity” value in series [11] ([ligand]/[antibiotic], B. subtilis ATCC 6633, 24 h) was found to be 663.
For “POB2K-K-Dap-K(Vancomycin)-NHMe [Compound 27]”, the “MIC +50% HS” value in series [7] was 0.25 µg/mL and 0.375 µg/mL.

As usually defined, the CC50 is the concentration at which the toxic effect on the cells reaches its halfway point.
